Experimental data from patent US20260109758A1 (BIOSION, published 2026).
Values belong to the binder of their own block, whether it stands above or below them.

How the values were obtained:
[1] = molecular target: T1, recombinant human TSLP-his (human, UniProt Q969D9 29-159, biotin-labeled in the ELISAs); test: competitive ELISA: antibody pre-mixed with biotin human TSLP-his; blocked binding to coated TSLPR-Fc/IL7Ra-Fc
T1 construct: In-house made; not shown: His tag at the C-terminus
Procedure: Briefly, 100 μL human TSLPR-Fc proteins (SEQ ID NO: 34-SEQ ID NO: 38 fusion, prepared in-house) at 1 μg/mL in PBS, and 100 μL human IL7Ra-Fc proteins (SEQ ID NO: 35-SEQ ID NO: 38 fusion, prepared in-house) at 1 μg/mL in PBS were coated on 96-well micro plates overnight at 4° C. The next day, plates were washed with wash buffer (PBS+0.05% Tween-20, PBST), and blocked with 5% w/v non-fatty milk in PBST for 2 hours at 37° C. Plates were then washed again using wash buffer.
After incubation at 37° C. for 40 minutes, plates were washed 4 times using wash buffer. […] Plates were washed again using wash buffer. Finally, TMB was added and the reaction was stopped using 1M H₂SO₄. The absorbance was read on a microplate reader using dual wavelength mode with 450 nm for TMB and 630 nm as the reference wavelength, then the OD (450-630) values were plotted against the antibody concentration. Data was analyzed using Graphpad Prism and IC₅₀ values were reported.

[2] = molecular target: T2, human IL4Rα expressed on 293F-IL4Rα cell surface (human, UniProt P24394 26-825); test: flow cytometry on 293F-IL4Rα cells, PE anti-human IgG Fc
T2 construct: whole, on cells; also called human IL4Rα-expressing cells; cell surface IL4R
Procedure: Cells were washed twice with FACS buffer, and added with 100 μL/well R-Phycoerythrin AffiniPure Goat Anti-Human IgG, Fey fragment specific (1:1000 dilution in FACS buffer, Jackson Immunoresearch, Cat #109-115-098). Following an incubation of 40 minutes at 4° C. in dark, cells were washed three times and resuspended in FACS buffer. Fluorescence was measured using a Becton Dickinson FACS Canto II-HTS equipment. Data was analyzed using Graphpad Prism and EC₅₀ values were reported.

B1: BSI-502-004 (bispecific antibody, human IgG1, kappa)
heavy: DIQMTQSPSSLSASVGDRVTITCRTSENIYSYLAWYQQKPGKAPKFLVYNAKTLAEGVPSRFSGSGSGTDFTLTISSLQPEDFATYYCQHYYGPPTWTFGQGTKVEIKGGGGSGGGGSGGGGSGGGGSEVQLVESGGGLVQPGGSLRLSCAASGFTFSTYGMSWVRQAPGKGLVWVATINSNGGSTSYPDSVKGRFTISRDNAKNTLYLQMNSLRAEDTAVYYCARFFRFRNAMDYWGQGTLVTVSSGGGGSGGGGSQVQLVQSGAEVKKPGASVKVSCKASGYTFTTYWMHWVRQAPGQGLEWMGVIDPSDSDTTYNQKFKGRVTMTRDTSTSTVYMELSSLRSEDTAVYYCTRSLDGYYDYWGQGTLVTVSSASTKGPSVFPLAPSSKSTSGGTAALGCLVKDYFPEPVTVSWNSGALTSGVHTFPAVLQSSGLYSLSSVVTVPSSSLGTQTYICNVNHKPSNTKVDKKVEPKSCDKTHTCPPCPAPEAQGGPSVFLFPPKPKDTLYITREPEVTCVVVDVSHEDPEVKFNWYVDGVEVHNAKTKPREEQYNSTYRVVSVLTVLHQDWLNGKEYKCQVSNKALPAPIEKTISKAKGQPREPQVYTLPPSRDELTKNQVSLTCLVKGFYPSDIAVEWESNGQPENNYKTTPPVLDSDGSFFLYSKLTVDKSRWQQGNVFSCSVMHEALHNHYTQKSLSLSPG
light: DIQMTQSPSSLSASVGDRVTITCRPTENIYSYLAWYQQKPGKAPKLLIYFARTLAEGVPSRFSGSGSGTDFTLTISSLQPEDFATYYCQHHYGTPWTFGGGTKVEIKRTVAAPSVFIFPPSDEQLKSGTASVVCLLNNFYPREAKVQWKVDNALQSGNSQESVTEQDSKDSTYSLSSTLTLSKADYEKHKVYACEVTHQGLSSPVTKSFNRGEC
notes: hu1C5F12E9-V8 IgG with an anti-IL4R scFv (VL-VH) at the N-terminus of the heavy chain; AQQ and YTE already stand in the entry
IC50 [1]: 144 pM

B2: BSI-502-005 (bispecific antibody, human IgG1, kappa)
heavy: QVQLVQSGAEVKKPGASVKVSCKASGYTFTTYWMHWVRQAPGQGLEWMGVIDPSDSDTTYNQKFKGRVTMTRDTSTSTVYMELSSLRSEDTAVYYCTRSLDGYYDYWGQGTLVTVSSASTKGPSVFPLAPSSKSTSGGTAALGCLVKDYFPEPVTVSWNSGALTSGVHTFPAVLQSSGLYSLSSVVTVPSSSLGTQTYICNVNHKPSNTKVDKKVEPKSCDKTHTCPPCPAPEAQGGPSVFLFPPKPKDTLYITREPEVTCVVVDVSHEDPEVKFNWYVDGVEVHNAKTKPREEQYNSTYRVVSVLTVLHQDWLNGKEYKCQVSNKALPAPIEKTISKAKGQPREPQVYTLPPSRDELTKNQVSLTCLVKGFYPSDIAVEWESNGQPENNYKTTPPVLDSDGSFFLYSKLTVDKSRWQQGNVFSCSVMHEALHNHYTQKSLSLSPGKGGGGSGGGGSEVQLVESGGGLVQPGGSLRLSCAASGFTFSTYGMSWVRQAPGKGLVWVATINSNGGSTSYPDSVKGRFTISRDNAKNTLYLQMNSLRAEDTAVYYCARFFRFRNAMDYWGQGTLVTVSSGGGGSGGGGSGGGGSGGGGSDIQMTQSPSSLSASVGDRVTITCRTSENIYSYLAWYQQKPGKAPKFLVYNAKTLAEGVPSRFSGSGSGTDFTLTISSLQPEDFATYYCQHYYGPPTWTFGQGTKVEIK
light: B1 light
notes: hu1C5F12E9-V8 IgG with an anti-IL4R scFv (VH-VL) at the C-terminus of the heavy chain; AQQ and YTE already stand in the entry
EC50 [2]: 418 pM

Now from value to binder:

EC50 [2]: 188 pM
B3: BSI-502-007 (bispecific antibody, human IgG1, kappa)
heavy: QVQLVQSGAEVKKPGASVKVSCKASGYTFTTYWMHWVRQAPGQGLEWMGVIDPSDSDTTYNQKFKGRVTMTRDTSTSTVYMELSSLRSEDTAVYYCTRSLDGYYDYWGQGTLVTVSSGGGGSGGGGSGGGGSGGGGSDIQMTQSPSSLSASVGDRVTITCRPTENIYSYLAWYQQKPGKAPKLLIYFARTLAEGVPSRFSGSGSGTDFTLTISSLQPEDFATYYCQHHYGTPWTFGGGTKVEIKGGGGSGGGGSEVQLVESGGGLVQPGGSLRLSCAASGFTFSTYGMSWVRQAPGKGLVWVATINSNGGSTSYPDSVKGRFTISRDNAKNTLYLQMNSLRAEDTAVYYCARFFRFRNAMDYWGQGTLVTVSSASTKGPSVFPLAPSSKSTSGGTAALGCLVKDYFPEPVTVSWNSGALTSGVHTFPAVLQSSGLYSLSSVVTVPSSSLGTQTYICNVNHKPSNTKVDKKVEPKSCDKTHTCPPCPAPEAQGGPSVFLFPPKPKDTLYITREPEVTCVVVDVSHEDPEVKFNWYVDGVEVHNAKTKPREEQYNSTYRVVSVLTVLHQDWLNGKEYKCQVSNKALPAPIEKTISKAKGQPREPQVYTLPPSRDELTKNQVSLTCLVKGFYPSDIAVEWESNGQPENNYKTTPPVLDSDGSFFLYSKLTVDKSRWQQGNVFSCSVMHEALHNHYTQKSLSLSPG
light: DIQMTQSPSSLSASVGDRVTITCRTSENIYSYLAWYQQKPGKAPKFLVYNAKTLAEGVPSRFSGSGSGTDFTLTISSLQPEDFATYYCQHYYGPPTWTFGQGTKVEIKRTVAAPSVFIFPPSDEQLKSGTASVVCLLNNFYPREAKVQWKVDNALQSGNSQESVTEQDSKDSTYSLSSTLTLSKADYEKHKVYACEVTHQGLSSPVTKSFNRGEC
notes: huC2C1A1A1-V15 IgG with an anti-TSLP scFv (VH-VL) at the N-terminus of the heavy chain; AQQ and YTE already stand in the entry

EC50 [2]: 176 pM
B4: BSI-502-008 (bispecific antibody, human IgG1, kappa)
heavy: DIQMTQSPSSLSASVGDRVTITCRPTENIYSYLAWYQQKPGKAPKLLIYFARTLAEGVPSRFSGSGSGTDFTLTISSLQPEDFATYYCQHHYGTPWTFGGGTKVEIKGGGGSGGGGSGGGGSGGGGSQVQLVQSGAEVKKPGASVKVSCKASGYTFTTYWMHWVRQAPGQGLEWMGVIDPSDSDTTYNQKFKGRVTMTRDTSTSTVYMELSSLRSEDTAVYYCTRSLDGYYDYWGQGTLVTVSSGGGGSGGGGSEVQLVESGGGLVQPGGSLRLSCAASGFTFSTYGMSWVRQAPGKGLVWVATINSNGGSTSYPDSVKGRFTISRDNAKNTLYLQMNSLRAEDTAVYYCARFFRFRNAMDYWGQGTLVTVSSASTKGPSVFPLAPSSKSTSGGTAALGCLVKDYFPEPVTVSWNSGALTSGVHTFPAVLQSSGLYSLSSVVTVPSSSLGTQTYICNVNHKPSNTKVDKKVEPKSCDKTHTCPPCPAPEAQGGPSVFLFPPKPKDTLYITREPEVTCVVVDVSHEDPEVKFNWYVDGVEVHNAKTKPREEQYNSTYRVVSVLTVLHQDWLNGKEYKCQVSNKALPAPIEKTISKAKGQPREPQVYTLPPSRDELTKNQVSLTCLVKGFYPSDIAVEWESNGQPENNYKTTPPVLDSDGSFFLYSKLTVDKSRWQQGNVFSCSVMHEALHNHYTQKSLSLSPG
light: B3 light
notes: huC2C1A1A1-V15 IgG with an anti-TSLP scFv (VL-VH) at the N-terminus of the heavy chain; AQQ and YTE already stand in the entry
